In the Immune Epitope Database (IEDB):

Biological target: HLA-A*31:01
Test: IEDB peptide-MHC binding, purified MHC/competitive/radioactivity; filed as Kd, often an IC50 or EC50 that approximates it; ≥ and ≤ were set here for values at or beyond the usual limits of such assays
Conditions: source organism: SARS coronavirus Tor2

Sequence | Kd [nM]
SQASSRSSSR | 470

Same assay, conditions: source organism: Vaccinia virus WR

Sequence | Kd [nM]
FSNTILLSDK | 1260
SIFPANINDK | ≥ 70000
NVISSKISY | 4960
SSRVDRYSKK | 835
HLKVALYRR | 0.197
NSYISNIIY | ≥ 23700
AVVADLSAR | 26.6
IICEDAMYY | ≥ 61400
YLTMKAIEK | 11400
PSTVKTNLY | 6120
VSIILANER | 130
VTFRERYSYK | 3360
LIKKSDAKR | 13.8
YANLDDVYSY | ≥ 33300
TFIMLEGETK | 816
QMLTSGEYK | 28.3

Biological target: HLA-A*33:01
Test: as above
Conditions: source organism: Lymphocytic choriomeningitis virus (strain Armstrong)

Sequence | Kd [nM]
VTMFEALPH | ≥ 77700

Same assay, conditions: source organism: Mammarenavirus juninense

Sequence | Kd [nM]
NYTKFWYVNH | 54.5

Same assay, conditions: source organism: Mammarenavirus machupoense

Sequence | Kd [nM]
SSFDYCGTDH | ≥ 42000

Same assay, conditions: source organism: SARS coronavirus Tor2

Sequence | Kd [nM]
TAFQHQNSKK | ≥ 70000
NQLESKVSGK | ≥ 70000
NAFNCTFEY | 1870
FLYLYALIY | 17900
SQASSRSSSR | 1320

Same assay, conditions: source organism: Vaccinia virus WR

Sequence | Kd [nM]
FSNTILLSDK | ≥ 62600
SIFPANINDK | ≥ 46000
NVISSKISY | 6450
SSRVDRYSKK | ≥ 29600
HLKVALYRR | 9.72
NSYISNIIY | 11700
AVVADLSAR | 712
IICEDAMYY | ≥ 77700
YLTMKAIEK | 9830
PSTVKTNLY | 3680
VSIILANER | 7690
VTFRERYSYK | 2480
LIKKSDAKR | 533
YANLDDVYSY | 15600
TFIMLEGETK | 3420
QMLTSGEYK | 7280

Biological target: HLA-A*68:01
Test: as above
Conditions: source organism: Lymphocytic choriomeningitis virus (strain Armstrong)

Sequence | Kd [nM]
VTMFEALPH | 18700

Same assay, conditions: source organism: Mammarenavirus juninense

Sequence | Kd [nM]
NYTKFWYVNH | 9630

Same assay, conditions: source organism: Mammarenavirus machupoense

Sequence | Kd [nM]
SSFDYCGTDH | ≥ 41800

Same assay, conditions: source organism: SARS coronavirus Tor2

Sequence | Kd [nM]
TAFQHQNSKK | 16.1
NQLESKVSGK | 6960
NAFNCTFEY | 9.72
FLYLYALIY | ≥ 44400
SQASSRSSSR | 400

Same assay, conditions: source organism: Vaccinia virus WR

Sequence | Kd [nM]
FSNTILLSDK | 100
SIFPANINDK | 121
NVISSKISY | 439
SSRVDRYSKK | 3040
HLKVALYRR | 67.1
NSYISNIIY | 597
AVVADLSAR | 6.45
IICEDAMYY | 3660
YLTMKAIEK | 1010
PSTVKTNLY | 7980
VSIILANER | 8.48
VTFRERYSYK | 2.83
LIKKSDAKR | 170
YANLDDVYSY | 1650
TFIMLEGETK | 176
QMLTSGEYK | 266
